Experimental data published in paper PMC12120770, “Unveiling Structural Heterogeneity and Evolutionary Adaptations of Heteromultimeric Bacterioferritin Nanocages” (Advanced Science, 2025).

B1: SoBfr2, heme-binding subunit of the Shewanella oneidensis hetero-bacterioferritin SoBfr12 (natural protein)
chain: MKGHPKVVGQLNRVLTCELTAINQYFLHARMFKHWGLEKLNHVEYKKSIEDMKHADKLIERVLFLEGLPNLQQLEKLRIGEHAQEMLDCDLAMVQEQLTLLRDAITLCEAEQDYVSRDLLEDILEDEEEHLDWLESQRELIGLTGIQNYLQSQISES
B2: SoBfr1, heme-free subunit of the Shewanella oneidensis hetero-bacterioferritin SoBfr12 (natural protein)
chain: MKGDKDVIDALNRLLTGELSAMDQYFVHAHMYEDWGLNELYERIAHESDDEKGHAAKLVQRILFLEGVPNVAAREALNIGSNVEEMLRNDLAYEYKVADDLRKVIALCEQKKDYQTREILEVLLDDTESDHMYWLEKQLGLIDRIGLANYLQTKM
notes: SoBfr1, heme-free bacterioferritin subunit of Shewanella oneidensis, amplified from genomic DNA together with SoBfr2; Expressed from one DNA fragment encoding SoBfr2 and SoBfr1 with a Strep-tag II; not shown: Strep-tag II, C-terminal, kept
B3: PaBfrB, Pseudomonas aeruginosa homo-bacterioferritin subunit (natural protein)
chain: not shown
notes: also called homo-Bfr

Experiments:
[1] = biological target: the molecule itself; assay: cryo-EM structure; single-particle cryo-EM of purified SoBfr12 (1.7 mg mL^-1), subunits co-expressed in E. coli; refined with C1 symmetry, 2.62 Å
[2] = biological target: the molecule itself; assay: native gel or EMSA; purified PaBfrB on 6% native PAGE, Tris-glycine pH 8.3, 4 °C

Protein | stoichiometry N [1] | binding result [2]
B1 | 2 | 
B2 | 2 | 
B3 |  | binds
